Experiment in all cases: native gel or EMSA
The target in assay [1] is AcK-pro-PanD variant with acetyl-lysine at position 9 (S. enterica).
The target of assay [2] is AcK-pro-PanD variant with acetyl-lysine at position 14 (S. enterica).
Assay [3] has as its target AcK-pro-PanD variant with acetyl-lysine at position 53 (S. enterica).
Assay [4] deals with AcK-pro-PanD variant with acetyl-lysine at position 104 (S. enterica).
Assay [5] has as its target AcK-pro-PanD variant with acetyl-lysine at position 115 (S. enterica).
Assay [6] deals with AcK-pro-PanD variant with acetyl-lysine at position 119 (S. enterica).
Assay [7] addresses pro-PanD (wild type), made from a plasmid in S. enterica ΔpanM (S. enterica).

As usually defined, the stoichiometry N is the number of molecules, sites or subunits per partner or assembly. Take “AcK-pro-PanD variant with acetyl-lysine at position 9 (natural protein)”: the stoichiometry N in assay [1] came to 4.

Take “AcK-pro-PanD variant with acetyl-lysine at position 14 (natural protein)”: the stoichiometry N in assay [2] stood at 4.

Regarding “AcK-pro-PanD variant with acetyl-lysine at position 53 (natural protein)”, in assay [3], the stoichiometry N amounted to 4.

In the case of “AcK-pro-PanD variant with acetyl-lysine at position 104 (natural protein)”, the stoichiometry N in assay [4] is 4.

As for “AcK-pro-PanD variant with acetyl-lysine at position 115 (natural protein)”, the stoichiometry N in assay [5] amounted to 4.

As for “AcK-pro-PanD variant with acetyl-lysine at position 119 (natural protein)”, the stoichiometry N in assay [6] came out at 4.

In the case of “pro-PanD (wild type), made from a plasmid in S. enterica ΔpanM (natural protein)”, the stoichiometry N in assay [7] was 4.
